We go through five molecules from US20060183119A1, “Method for determining predisposition to a physiological reaction in a patient” (UNIVERSITE LAVAL, priority 2002, published 2006).

Broadly, the Km is the substrate concentration at which the rate is half of its maximum. A word on the Vmax: it is the rate approached at saturating substrate.

The target of one series is T1, human UGT1A9*2 (Homo sapiens, UniProt O60656, C3Y).
T1 sequence (O60656 26-530): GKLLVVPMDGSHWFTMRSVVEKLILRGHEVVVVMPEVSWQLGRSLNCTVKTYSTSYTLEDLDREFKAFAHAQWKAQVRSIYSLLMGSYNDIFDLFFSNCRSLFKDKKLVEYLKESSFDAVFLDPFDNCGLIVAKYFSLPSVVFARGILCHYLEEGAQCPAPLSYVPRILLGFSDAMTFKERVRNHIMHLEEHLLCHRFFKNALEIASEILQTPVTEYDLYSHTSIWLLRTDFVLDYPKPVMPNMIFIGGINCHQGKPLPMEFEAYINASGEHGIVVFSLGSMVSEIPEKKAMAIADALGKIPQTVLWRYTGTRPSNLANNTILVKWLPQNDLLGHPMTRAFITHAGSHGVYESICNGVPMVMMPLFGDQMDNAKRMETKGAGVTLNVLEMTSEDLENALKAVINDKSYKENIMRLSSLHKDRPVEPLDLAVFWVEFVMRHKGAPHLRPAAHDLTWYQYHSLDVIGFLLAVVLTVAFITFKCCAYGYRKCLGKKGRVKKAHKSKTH
The series is described as follows: Glucuronidation by microsomes of HEK-293 cells stably expressing UGT1A9*2. Conditions: 5 μM and 200 μM of flavopiridol. On the procedure:
(§1) Microsomal fractions from HEK-293 cells stably expressing human UGT1A9*1, UGT1A9*2 and UGT1A9*3 were used in enzymatic assays. Reactions (100 μl volume) contained 50 mM Tris-HCl, pH 7.3, 10 mM MgCl2, 100 μg/mL phosphatidylcholine, 1 mM UDP-glucuronic acid, 40 to 60 μg of membrane protein. […] Human liver microsome were incubated in the same condition for control. Reaction was stopped by the addition of 200 μL MeOH+1% HCl 2N, followed by centrifugation at 14000 rpm for 10 minutes. Supernatant was filtered through a 0.22 μm filter and 100 μL of water was added. For SN-38 and SN-38-glucuronide detection, 10 μL samples were injected on a liquid chromatographic system coupled to a fluorescence detector. Time-course experiments were realized to determine the linearity of the glucuronidation reaction.
(§2) A liquid chromatographic method was developed to quantify SN-38 glucuronidation of UGT cell line-derived microsomes and human liver microsomes. Samples were analyzed using high performance liquid chromatography (Alliance 2695, Waters, Milford, Mass.). […] At a constant flow rate (0.7 ml/min), a linear gradient from 20 to 65% B was run over 3 min, held 0.8 min and a second gradient until 95% of B was run over 2 min and then re-equilibrated to 20% B over 2 min. The effluent from the HPLC system (Alliance 2695) was connected directly to a fluorescence detector (Waters, Milford, Mass.) using an excitation wavelength of […] and an emission of 460 nm. […] Determination of the glucuronidation rates obtained with other substrates was performed as currently known in the art.
(§3) Microsomal fractions from HEK293 (40 to 60 μg) were added to a reaction mixture (100 μL) containing 50 mM Tris-HCl, pH 7.3, 10 mM MgCl2, 100 μg/mL phosphatidylcholine and 2 mM UDP-glucuronic acid. […] Commercially available human liver microsomes (Human Cell Culture Center Inc., Laurel, Md.) were incubated in the same conditions for all experiments. Time-course experiments were performed to determine the linearity of the glucuronidation reaction. For the determination of Vmax and Km. HEK293 cells stably expressing UGT1A9 enzymes were incubated in the presence of various concentrations of SN-38 ranging from 0.1 to 200 μM and incubated for 30 min as described above whereas UGT1A7 membranes preparations were incubated for 3 hours. […] Reactions with SN-38 were stopped by the addition of 200 μL MeOH+1% HCl 2N, followed by centrifugation at 14000×g for 10 minutes. The supernatants were filtered through a 0.22 μm membrane and 100 μL of water was added to the filtrate. For the detection of SN-38 and its glucuronide (SN-38G), 10 μL samples were injected in a liquid chromatographic system (HPLC) coupled to fluorescence detector as described below.
(§4) A HPLC method was developed to quantify the rates of SN-38 glucuronidation from the various microsomal fractions under study. The HPLC system used was an Alliance 2695 (Waters, Milford, Mass.) equipped with a 50×3.2 mm Colombus C18 column (Phenomenex, Torrance, Calif.). […] Then a second gradient ranging from 65% to 95% solvent B was generated during the following 2 min. Finally, the column was re-equilibrated to 20% solvent B for 2 min. The column was connected to a fluorescence detector model 474 (Waters, Milford, Mass.) and the molecules were excited at a wavelength of 370 nm and an emission of 425 nm.

The next series addresses T2, human UGT1A9*3 (Homo sapiens, UniProt O60656, M33T).
T2 sequence (O60656 26-530 M33T): T1 sequence (O60656 26-530) with M8T
Briefly: Glucuronidation by microsomes of HEK-293 cells stably expressing UGT1A9*3. On the procedure: as §1, §2, §3, §4

Series [1] deals with COc1c(C)c2c(c(O)c1C/C=C(\C)CCC(=O)O)C(=O)OC2. The series is described as follows: cells, lysate or membranes named. Conditions: other: MPA glucuronidation; pH 7.3; 37.0 °C.
Substrate in series [2]: COc1c(C)c2c(c(O)c1C/C=C(\C)CCC(=O)O)C(=O)OC2
Briefly: cells, lysate or membranes named. The following applies: other: MPA glucuronidation; pH 7.3; 37.0 °C. The source holds these as a separate data set.

Where a chain is given by its changes, count along the chain named. In names and notes the source's numbering stands.

As for `CN1CC[C@H](c2c(O)cc(O)c3c(=O)cc(-c4ccccc4Cl)oc23)[C@H](O)C1` [Flavopiridol, flavopiridol], the “formation of flavopiridol-G compared to the UGT1A9*1 allele” value on human UGT1A9*2 is recorded as “not statistically different”; at human UGT1A9*3 (5 μM and 200 μM of flavopiridol), “not statistically different”.

Consider `COc1c(C)c2c(c(O)c1C/C=C(\C)CCC(=O)O)C(=O)OC2` [MPA, mycophenolic acid], for which the “effect of codon 33 variation on affinity of the protein for the substrate (in words)” value on human UGT1A9*3 (versus UGT1A9*1) is “dramatically reduced”.

Regarding human UGT1A9*2 (Homo sapiens; C3Y), in series [1], the Michaelis constant (Km) was 303 µM and the Vmax was determined as 0.0084 µmol/min/mg.

B1: human UGT1A9*1 (Homo sapiens) (protein)
chain: T1 sequence (O60656 26-530)
For the molecule B1, in series [2], the Km was found to be 495 µM and the Vmax came to 0.00941 µmol/min/mg.

B2: human UGT1A9*3 (Homo sapiens; M33T) (protein)
chain: T1 sequence (O60656 26-530) with M8T
On to B2, for which, in series [2], the Km came to 3225 µM and the Vmax is 0.0141 µmol/min/mg.
